Assays:
[1] = target: T1, mouse CD36 recombinant protein (Sino Biological, reference 50422-M08H) (mouse, UniProt Q08857 30-439); assay: ELISA, plate coated with mouse CD36, OD630, panel 'Coating: mouse CD36'; Kd printed beside the 1G04 curve
T1 construct: Bought recombinant protein; also called murine CD36
Method: (§1) To perform ELISA assays, 96-well ELISA plates were coated over night with human CD36 (Sino Biological, reference 10752-H08H) or mouse CD36 (Sino Biological, reference 50422-M08H) recombinant proteins at a concentration of 0.25 mg/ml. After two washes with PBS, plates were blocked with 4% skimmed milk in PBS for 1 hour at 37° C. Blocking solution was discarded and plates were washed five times with 200 μl/well PBS-Tween20 (0.5%). Primary antibodies were either omitted (control blocking solution treatment) or mixed in blocking solution at several dilutions ranging from 0.01 nM to 0.5 μM. The primary antibody solutions were added to the wells and incubated over night at 4° C. After 5 washes with 200 ul/well of PBS-Tween20 (0.5%), plates were incubated for 1 hour at room temperature with a goat anti-mouse HRP-conjugated antibody (Abeam, reference ab97235) diluted 1:2000 in blocking solution. Plates were then washed 5 times with 200 μl/well of PBS-Tween20 (0.5%), incubated with 100 μl/well TMB and detected after 10 minutes, 30 minutes, or 60 minutes with a spectrophotometer at a wave length of 630 nm.

[2] = target: T2, human CD36 recombinant protein (Sino Biological, reference 10752-H08H) (human, UniProt P16671 30-439); assay: ELISA, plate coated with human CD36, OD630nm
T2 construct: Bought recombinant protein
Method: as §1

[3] = target: T2, human CD36 recombinant protein (Sino …); assay: SPR Biacore T200, antibody captured on protein A, CD36 analyte, 2-state model
Method: (§2) The affinity of ONA-0-v1, 1G04, and a commercial anti-CD36 antibody (JC63.1) for human CD36 was also measured by surface plasmon resonance (SPR) using a Biacore T200. 1G04 was analysed using a protein A capture surface, with a capture range of 100-150 RU and an antigen titration range of 3.3-333 nM. The mouse antibodies ONA-0-V1 and the commercial anti-CD36 antibody were analysed using an anti-mouse IgA capture surface, with a capture range of 160-180 RU and an antigen titration range of 3.3-333 nM. For each single analysis cycle a titration of five antigen concentrations were injected over the captured antibody and then the dissociation of the complex was measured. A double referencing method was employed in which data from the reference surfaces where no antibody was captured (fc 1 and 3 respectively) were subtracted from the antibody bound capture surface (fc 2 and 4). Blank injections of buffer were run for every antigen titration cycle and then subtracted from analyte injection cycles, to correct for small changes in the antibody capture surface density. All analysis was performed at 25° C., and the sample rack was kept at 6° C. during experimental runs. Each experiment was run at least three times with the mean binding constants generated from at least two independent assays reported. All analysis was performed in PBS-T running buffer at 40 μL/min.

[4] = target: T3, human CD36 on cells overexpressing human CD36 (human, UniProt P16671 2-472); assay: FACS on cells overexpressing human CD36, % of Binding
Method: For FACS analysis, cells were trypsinized, collected in a 15 mL tube and diluted in washing buffer (2% FBS in PBS). Cells were then centrifuged at 1500 rpm for 5 min at 4° C., supernatant was discarded, and cells were resuspended in fresh washing buffer. Anti-CD36 antibodies were either omitted (control wash buffer treatment) or serially diluted in washing buffer (dilution range up to 100 nM), and then added to the cells. Incubation was performed on ice for 1 hour. Cells were then centrifuged at 1500 rpm for 5 min at 4° C., supernatant was discarded, and cells were resuspended in fresh washing buffer. Finally, cells were incubated with a […] (BV421 Rat Anti-Mouse IgA, Becton Dickinson, reference 743293) diluted 1:100 in washing buffer, washed and analysed by FACS.

[5] = target: T2, human CD36 recombinant protein (Sino …); assay: SPR Biacore T200, antibody captured on protein A, CD36 analyte 3.3-333 nM, 1-to-1 model
Method: as §2

[6] = target: T1, mouse CD36 recombinant protein (Sino …); assay: ELISA, plate coated with mouse CD36, OD630nm
Method: as §1

[7] = target: T3, human CD36 on cells overexpressing …; assay: FACS on cells overexpressing human CD36, GeoMFI against Log10 mAb Concentration (nM)
[8] = target: T3, human CD36 on cells overexpressing …; assay: FACS on cells overexpressing human CD36, MFI
[9] = target: T2, human CD36 recombinant protein (Sino …); assay: ELISA, plate coated with human CD36, OD630, panel 'Coating: human CD36'; Kd printed beside the 1G04 curve
Method: as §1

[10] = target: T2, human CD36 recombinant protein (Sino …); assay: SPR Biacore T200, antibody captured on anti-mouse IgA, CD36 analyte, 2-state model
Method: as §2

[11] = target: T1, mouse CD36 recombinant protein (Sino …); assay: ELISA, plate coated with mouse CD36, OD630, panel 'Coating: mouse CD36'
Method: as §1

[12] = target: T2, human CD36 recombinant protein (Sino …); assay: SPR Biacore T200, antibody captured on anti-mouse IgA, CD36 analyte 3.3-333 nM, 1-to-1 model
Method: as §2

[13] = target: T1, mouse CD36 recombinant protein (Sino …); assay: estimated from ELISA, CD36 coated on plate; mouse CD36 coated on plate
Method: as §1

[14] = target: T2, human CD36 recombinant protein (Sino …); assay: estimated from ELISA, CD36 coated on plate; human CD36 coated on plate
Method: as §1

T2 sequence (P16671 30-439 limits assumed): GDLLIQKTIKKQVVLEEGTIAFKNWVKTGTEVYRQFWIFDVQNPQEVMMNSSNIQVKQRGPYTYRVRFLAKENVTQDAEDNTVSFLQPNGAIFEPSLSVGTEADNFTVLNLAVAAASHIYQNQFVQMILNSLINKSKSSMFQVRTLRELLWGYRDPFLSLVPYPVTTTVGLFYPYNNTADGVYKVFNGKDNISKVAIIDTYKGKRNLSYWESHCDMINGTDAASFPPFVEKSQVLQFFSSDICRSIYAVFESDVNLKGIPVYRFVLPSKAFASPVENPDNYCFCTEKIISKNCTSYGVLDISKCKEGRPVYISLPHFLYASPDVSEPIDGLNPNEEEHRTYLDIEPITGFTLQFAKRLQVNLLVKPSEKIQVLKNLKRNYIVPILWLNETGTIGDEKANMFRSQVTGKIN
T3 sequence (P16671 2-472 limits assumed): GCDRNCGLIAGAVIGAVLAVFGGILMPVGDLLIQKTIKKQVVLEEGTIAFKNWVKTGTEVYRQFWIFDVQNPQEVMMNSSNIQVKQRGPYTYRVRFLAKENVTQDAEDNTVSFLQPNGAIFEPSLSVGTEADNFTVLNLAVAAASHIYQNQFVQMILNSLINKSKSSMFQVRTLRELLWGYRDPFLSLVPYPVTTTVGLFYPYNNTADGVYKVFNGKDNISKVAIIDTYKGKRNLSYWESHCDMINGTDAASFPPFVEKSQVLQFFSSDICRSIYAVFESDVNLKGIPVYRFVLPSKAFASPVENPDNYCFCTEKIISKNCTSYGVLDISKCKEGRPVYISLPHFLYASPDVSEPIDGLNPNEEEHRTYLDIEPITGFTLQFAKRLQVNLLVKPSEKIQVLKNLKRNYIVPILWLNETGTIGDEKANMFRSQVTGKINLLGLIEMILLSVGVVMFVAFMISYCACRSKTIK
T1 sequence (Q08857 30-439 limits assumed, stated change not applied): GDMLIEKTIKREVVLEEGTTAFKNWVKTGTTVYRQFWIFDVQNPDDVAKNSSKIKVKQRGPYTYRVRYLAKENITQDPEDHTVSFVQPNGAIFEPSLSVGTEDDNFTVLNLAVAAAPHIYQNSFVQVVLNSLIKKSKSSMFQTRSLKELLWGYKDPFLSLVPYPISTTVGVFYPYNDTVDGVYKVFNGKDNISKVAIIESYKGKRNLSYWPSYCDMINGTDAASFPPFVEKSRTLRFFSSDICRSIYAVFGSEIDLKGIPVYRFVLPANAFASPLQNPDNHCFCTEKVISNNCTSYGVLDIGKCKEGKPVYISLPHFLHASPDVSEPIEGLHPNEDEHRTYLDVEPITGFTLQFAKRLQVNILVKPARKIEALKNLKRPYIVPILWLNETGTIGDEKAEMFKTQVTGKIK

Row | Binder | Kd [1] | EC50 (read off the curve) [2] | Kd [3] | EC50 (read off the curve) [4] | Kd [5] | koff [5] | kon [5] | EC50 (read off the curve) [6] | EC50 (read off the curve) [7] | EC50 (read off the curve) [8] | Kd [9] | Kd [10] | EC50 (read off the curve) [11] | Kd [12] | koff [12] | kon [12] | Kd [13] | Kd [14]
1 | 1G04 (chimeric ONA-0-v1 IgG1 LALA antibody) (antibody, Human IgG1 with the LALA alteration, human kappa light chain; also called 1G04 (IgG1)) heavy: not shown light: SIVMTQTPKFLLVSAGDRITITCKASQSVSDDVAWYQQKPGQSPKLLIYYASNRYTGVPDRFTGSGYGTDFTFTISTVQAEDLAVYFCQQDYSSPLTFGAGTKLEIKRTVAAPSVFIFPPSDEQLKSGTASVVCLLNNFYPREAKVQWKVDNALQSGNSQESVTEQDSKDSTYSLSSTLTLSKADYEKHKVYACEVTHQGLSSPVTKSFNRGEC | 0.1 nM | ~80 pM | 2.78 nM | ~0.03 nM | 1.74 nM | 0.000159 s⁻¹ | 100000 M⁻¹ s⁻¹ | ~300 pM | ~0.4 nM | ~0.2 nM | 0.04 nM |  |  |  |  |  |  | 
2 | 1G06 antibody (chimeric ONA-0-v1 IgG1) (antibody) heavy: QVQLKQSGADLVRPGASVKLSCKASGYTFTDYYINWVKQRPGQGLEWIARIYPGSGNTYYNEKFKGKATLTAEKSSSTAYMQLSSLTSEDSAVYFCARGIGGGFGMDYWGQGTSVTVSSASTKGPSVFPLAPSSKSTSGGTAALGCLVKDYFPEPVTVSWNSGALTSGVHTFPAVLQSSGLYSLSSVVTVPSSSLGTQTYICNVNHKPSNTKVDKKVEPKSCDKTHTCPPCPAPESTRGPSVFLFPPKPKDTLMISRTPEVTCVVVDVSHEDPEVKFNWYVDGVEVHNAKTKPREEQYNSTYRVVSVLTVLHQDWLNGKEYKCKVSNKALPAPIEKTISKAKGQPREPQVYTLPPSRDELTKNQVSLTCLVKGFYPSDIAVEWESNGQPENNYKTTPPVLDSDGSFFLYSKLTVDKSRWQQGNVFSCSVMHEALHNHYTQKSLSLSPGK light: SIVMTQTPKFLLVSAGDRITITCKASQSVSDDVAWYQQKPGQSPKLLIYYASNRYTGVPDRFTGSGYGTDFTFTISTVQAEDLAVYFCQQDYSSPLTFGAGTKLEIKRTVAAPSVFIFPPSDEQLKSGTASVVCLLNNFYPREAKVQWKVDNALQSGNSQESVTEQDSKDSTYSLSSTLTLSKADYEKHKVYACEVTHQGLSSPVTKSFNRGEC |  | ~80 pM |  |  |  |  |  |  | ~0.4 nM |  |  |  |  |  |  |  |  | 
3 | ONA-0-v1 anti-CD36 antibody (murine IgA) (antibody, mouse IgA constant region; produced in HEK 293 cells; also called ONA-0-v1 (IgA); ONA-O-v1 (IgA)) heavy: QVQLKQSGADLVRPGASVKLSCKASGYTFTDYYINWVKQRPGQGLEWIARIYPGSGNTYYNEKFKGKATLTAEKSSSTAYMQLSSLTSEDSAVYFCARGIGGGFGMDYWGQGTSVTVSSESARNPTIYPLTLPPVLCSDPVIIGCLIHDYFPFGTMNVTWGKSGKDITTVNFPPALASGGRYTMSSQLTLPAVECPEGESVKCSVQHDSNPVQELDVNCSPTPPPPITIPSCQPSLSLQRPALEDLLLGSDASITCTLNGLRNPEGAAFTWEPSTGKDAVQKKAAQNSCGCYSVSSVLPGCAERWNSGASFKCTVTHPESGTLTGTIAKVTVNTFPPQVHLLPPPSEELALNELLSLTCLVRAFNPKEVLVRWLHGNEELSPESYLVFEPLKEPGEGATTYLVTSVLRVSAETWKQGDQYSCMVGHEALPMNFTQKTIDRLSGKPTNVSVSVIMSEGDGICY light: SIVMTQTPKFLLVSAGDRITITCKASQSVSDDVAWYQQKPGQSPKLLIYYASNRYTGVPDRFTGSGYGTDFTFTISTVQAEDLAVYFCQQDYSSPLTFGAGTKLEIKRADAAPTVSIFPPSSEQLTSGGASVVCFLNNFYPKDINVKWKIDGSERQNGVLNSWTDQDSKDSTYSMSSTLTLTKDEYERHNSYTCEATHKTSTSPIVKSFNRNEC |  |  |  | ~0.03 nM |  |  |  |  |  |  |  | 8.72 nM | ~1 nM | 5.85 nM | 0.00354 s⁻¹ | 632000 M⁻¹ s⁻¹ | ~0.1 nM | ~0.04 nM
